Source: publication PMC3552960, “Constitutively Active CCR5 Chemokine Receptors Differ in Mediating HIV Envelope-dependent Fusion” (PLoS ONE, 2013)
Numbering of substitutions follows the chain as printed.

Experiments:
Assay in all cases: radioligand binding
Conditions in all cases: one partner purified
[1] = molecular target: T1, CCR5 Thr^2.56(82)Pro mutant receptor (human, UniProt P51681 1-352, Thr^2.56(82)Pro)
T1 construct: also called T^2.69(82)P; source: HOS-CD4-Luc, transiently transfected, on cells (fusion)
T1 sequence: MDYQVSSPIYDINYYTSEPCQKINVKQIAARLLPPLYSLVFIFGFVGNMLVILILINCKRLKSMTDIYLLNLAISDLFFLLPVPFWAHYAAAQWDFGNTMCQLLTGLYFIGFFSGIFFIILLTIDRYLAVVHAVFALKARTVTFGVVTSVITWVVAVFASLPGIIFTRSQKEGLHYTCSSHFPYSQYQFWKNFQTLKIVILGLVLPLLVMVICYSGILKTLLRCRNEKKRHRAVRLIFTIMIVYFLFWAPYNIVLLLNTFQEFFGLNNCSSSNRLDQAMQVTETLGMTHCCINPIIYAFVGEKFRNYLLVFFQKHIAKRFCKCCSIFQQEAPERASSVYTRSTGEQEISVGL

[2] = molecular target: T2, wild type human CCR5 chemokine receptor (human, UniProt P51681 1-352)
T2 construct: source: HOS-CD4-Luc, transiently transfected, on cells (fusion)

[3] = molecular target: T3, CCR5 Thr^2.56(82)Pro/Arg^6.32(225)Gln double-mutant receptor (human, UniProt P51681 1-352, Thr^2.56(82)Pro | Arg^6.32(225)Gln)
T3 construct: also called T^2.56(82)P/R^6.32(225)Q; T^2.69(82)P/R^6.32(225)Q; source: HOS-CD4-Luc, transiently transfected, on cells (fusion)
T3 sequence: T1 sequence with R225Q

[4] = molecular target: T4, CCR5 Thr^2.56(82)Lys/Arg^6.32(225)Gln double-mutant receptor (human, UniProt P51681 1-352, Thr^2.56(82)Lys | Arg^6.32(225)Gln)
T4 construct: also called T^2.56(82)K/R^6.32(225)Q; T^2.69(82)K/R^6.32(225)Q; source: HOS-CD4-Luc, transiently transfected, on cells (fusion)
T4 sequence: T1 sequence with P82K, R225Q

B1: macrophage inflammatory protein 1β (MIP-1β, CCL4), recombinant human, unlabelled (ligand)
chain: APMGSDPPTACCFSYTARKLPRNFVVDYYETSSLCSQPAVVFQTKRSKQVCADPSESWVQEYVYDLELN
notes: also called unlabelled MIP-1β; source: bought: Peprotec (Rocky Hill, NJ)
**Q.** With B1 as the binder, how does the IC50 [1] read?
**A.** Its IC50 is 31.9 nM.

**Q.** What about the IC50 [2] of the same binder?
**A.** Its IC50 is 32.6 nM.

**Q.** And the IC50 [3]?
**A.** Its IC50 is 30.6 nM.

**Q.** And the IC50 [4]?
**A.** The IC50 was 20.7 nM.
